From patent US6812337 (GOVERNING COUNCIL OF THE UNIVERSITY OF TORONTO, dated 2004)

Tests used:
[1] = target: wild type human presenilin-1 (PS1) (human, UniProt P49768 1-467); experiment: cell-based or functional assay
[2] = target: T1, V5-tagged human Presenilin Associated Membrane Protein (PAMP) (human, UniProt Q92542 34-709); experiment: immunoprecipitation from cell lysates, Western blot
T1 construct: Expressed by transfection in HEK293 cells or murine embryonic fibroblasts and tested by co-immunoprecipitation from detergent lysates; Glycosylated (~110 kDa, ~80 kDa after Endo H); also called V5-PAMP; V5-tagged-PAMP

Binder | Aβ42/Aβ40 Ratio [1] | binding result [2]
PAMPΔ312-369 (other, not shown: small tags and cut ends) NSVERKIYIPLNKTAPCVRLLNATHQIGCQSSISGDTGVIHVVEKEEDLQWVLTDGPNPPYMVLLESKHFTRDLMEKLKGRTSRIAGLAVSLTKPSPASGFSPSVQCPNDGFGVYSNSYGPEFAHCREIQWNSLGNGLAYEDFSFPIFLLEDENETKVIKQCYQDHNLSQNGSAPTFPLCAMQLFSHMHAVISTATCMRRSSIQSTFSINPEIVCDPLSDYNVWSMLKPINTTGTLKPDDRVVVAATRLDSRSFFWNVAPGAESAVASFVTQLAAAEALRTSLELWMHTDPVSQKNESVRNQVEDLLATLEKSGAGVPAVILRRPNQSQPLPPSSLQRFLRARNISGVVLADHSGAFHNKYYQSIYDTAENINVSYPEWLSPEEDLNFVTDTAKALADVATVLGRALYELAGGTNFSDTVQADPQTVTRLLYGFLIKANNSWFQSILRQDLRSYLGDGPLQHYIAVSSPTNTTYVVQYALANLTGTVVNLTREQCQDPSKVPSENKDLYEYSWVQGPLHSNETDRLPRCVRSTARLARALSPAFELSQWSSTEYSTWTESRWKDIRARIFLIASKELELITLTVGFGILIFSLIVTYCINAKADVLFIAPREPGAVSY | 0.09 normalized to mock transfection | 
calnexin (other, UniProt P27824 21-592, looked up, whole, on cells; The only named member of 'other ER-resident proteins'; also called other ER-resident proteins (e.g., calnexin)) HDGHDDDVIDIEDDLDDVIEEVEDSKPDTTAPPSSPKVTYKAPVPTGEVYFADSFDRGTLSGWILSKAKKDDTDDEIAKYDGKWEVEEMKESKLPGDKGLVLMSRAKHHAISAKLNKPFLFDTKPLIVQYEVNFQNGIECGGAYVKLLSKTPELNLDQFHDKTPYTIMFGPDKCGEDYKLHFIFRHKNPKTGIYEEKHAKRPDADLKTYFTDKKTHLYTLILNPDNSFEILVDQSVVNSGNLLNDMTPPVNPSREIEDPEDRKPEDWDERPKIPDPEAVKPDDWDEDAPAKIPDEEATKPEGWLDDEPEYVPDPDAEKPEDWDEDMDGEWEAPQIANPRCESAPGCGVWQRPVIDNPNYKGKWKPPMIDNPSYQGIWKPRKIPNPDFFEDLEPFRMTPFSAIGLELWSMTSDIFFDNFIICADRRIVDDWANDGWGLKKAADGAAEPGVVGQMIEAAEERPWLWVVYILTVALPVFLVILFCCSGKKQTSGMEYKKTDAPQPDVKEEEEEKEEEKDKGDEEEEGEEKLEEKQKSDAEEDGGTVSQEEEDRKPKAEEDEILNRSPRNRKPRRE |  | no binding
PAMPΔ312-340 (other, not shown: small tags and cut ends) NSVERKIYIPLNKTAPCVRLLNATHQIGCQSSISGDTGVIHVVEKEEDLQWVLTDGPNPPYMVLLESKHFTRDLMEKLKGRTSRIAGLAVSLTKPSPASGFSPSVQCPNDGFGVYSNSYGPEFAHCREIQWNSLGNGLAYEDFSFPIFLLEDENETKVIKQCYQDHNLSQNGSAPTFPLCAMQLFSHMHAVISTATCMRRSSIQSTFSINPEIVCDPLSDYNVWSMLKPINTTGTLKPDDRVVVAATRLDSRSFFWNVAPGAESAVASFVTQLAAAEASRMVYDMEKGKFPVQLENVDSFVELGQVALRTSLELWMHTDPVSQKNESVRNQVEDLLATLEKSGAGVPAVILRRPNQSQPLPPSSLQRFLRARNISGVVLADHSGAFHNKYYQSIYDTAENINVSYPEWLSPEEDLNFVTDTAKALADVATVLGRALYELAGGTNFSDTVQADPQTVTRLLYGFLIKANNSWFQSILRQDLRSYLGDGPLQHYIAVSSPTNTTYVVQYALANLTGTVVNLTREQCQDPSKVPSENKDLYEYSWVQGPLHSNETDRLPRCVRSTARLARALSPAFELSQWSSTEYSTWTESRWKDIRARIFLIASKELELITLTVGFGILIFSLIVTYCINAKADVLFIAPREPGAVSY | 0.59 normalized to mock transfection | 
